Article PMC13231165

Columns and labels:
[1] = target: PCV2 Rep WT (catalytically inactive) (Porcine circovirus 2 (PCV2)) (UniProt Q8BB16); assay: fluorescence polarization; conditions: 50 mM NaCl, 50 mM HEPES pH 8.0, 0.05% Tween-20, 1 mM DTT, 5 uM MnCl2 (SI legend: 50 uM Mn2+) or EDTA; 10 nM FAM substrate, protein from 1 uM in 1:2 dilutions …
[2] = target: PCV2 Rep WT (catalytically inactive) (Porcine circovirus 2 (PCV2)) (UniProt Q8BB16); assay: fluorescence polarization; conditions: 50 mM NaCl, 50 mM HEPES pH 8.0, 0.05% Tween-20, 1 mM DTT, 5 uM MnCl2 (SI legend: 50 uM Mn2+) or EDTA; 10 nM FAM substrate, protein from 1 uM in 1:2 dilutions …; remark: listed apart in the source

Sequence of UniProt Q8BB16 (Q8BB16 whole entry): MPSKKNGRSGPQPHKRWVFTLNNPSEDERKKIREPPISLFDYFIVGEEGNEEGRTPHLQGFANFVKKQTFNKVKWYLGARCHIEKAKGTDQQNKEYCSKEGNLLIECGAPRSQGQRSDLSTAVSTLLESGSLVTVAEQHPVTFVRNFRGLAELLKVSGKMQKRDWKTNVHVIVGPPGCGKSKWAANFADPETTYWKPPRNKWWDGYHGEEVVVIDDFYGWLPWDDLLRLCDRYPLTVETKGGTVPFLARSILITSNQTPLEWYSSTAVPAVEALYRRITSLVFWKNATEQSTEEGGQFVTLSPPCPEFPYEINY

Sequence	Kd [1]	Kd [2]
CGTAAATATTACCGTC [HUHDNA_FAM]	30 nM	6 nM
CGUAAAAUAUUACCGUC [HUHRNA_FAM]	100 nM	90 nM
